Assay results published in paper PMC10221750.

Key:
[1] = molecular target: BG505 SOSIP.664 trimer (HIV-1 isolate BG505 (Clade A)); assay: SPR
[2] = molecular target: BG505 SOSIP.664 trimer (HIV-1 isolate BG505 (Clade A))

Substance	KD1 (site 1, heterogeneous-ligand model) [1] [nM]	KD2 (site 2, heterogeneous-ligand model) [1] [nM]	Kd [1] [nM]	Sm1 (stoichiometry of site 1, heterogeneous-ligand model) (Fab molecules per trimer) [1]	Sm1 + Sm2 (cumulative stoichiometry, heterogeneous-ligand model) (Fab molecules per trimer) [1]	Sm2 (stoichiometry of site 2, heterogeneous-ligand model) (Fab molecules per trimer) [1]	koff [1] [s⁻¹]	koff1 (site 1, heterogeneous-ligand model) [1] [s⁻¹]	koff2 (site 2, heterogeneous-ligand model) [1] [s⁻¹]	kon [1] [M⁻¹ s⁻¹]	kon1 (site 1, heterogeneous-ligand model) [1] [M⁻¹ s⁻¹]	kon2 (site 2, heterogeneous-ligand model) [1] [M⁻¹ s⁻¹]	stoichiometry N (Fab molecules per trimer) [1]	neutralization of BG505 pseudovirus in a TZM-bl assay, IC50 [2] [µg/mL]
PGT151 Fab	< 0.1	27	2	1.2	1.9	0.7	0.00018	< 1e-05	0.00076	87000	140000	28000	1.9	–
PGT151 IgG (antibody)	–	–	–	–	–	–	–	–	–	–	–	–	–	0.043
